Data reported in patent publication US20220280663A1, “[…] TARGETED […] ACTIVE SUBSTANCE OR LABEL […] SYSTEM” (CELLIS AG, priority 2016, published 2022).

Key:
Assay type in all cases: cell-based
CD45^+ leukocyte cell = assay: Uptake and storage of iron binding proteins by CD45+ leukocyte cells
Experimental: (§1) Obtained cells are incubated in ferritin solution for a time and at the concentration sufficient to ensure proper ratio of ferritin/cell for their full load and also to ensure proper drug content to obtain therapeutic effect or contrast for proper imaging. The time and concentration may vary depending on the number of molecules encapsulated/adsorbed into the ferritin cage, status of cell activation, condition and number of their intended administration.
For example, to ensure proper load with ferritins, cells are incubated for 1-4 hours in ferritin solution 0.8 mg/ml in standard culture conditions. The frame of ferritin concentration may vary at least between 0.01 and 4 mg/ml as well as incubation time (5 min-6 hours or more). Adjusting time and concentration of ferritin load to cells, the influence of ferritin and treatment conditions on cell viability should be minded.
as §1, with “haemoglobin” for “ferritin”, “haemoglobin/cell” for “ferritin/cell”, “linked with” for “encapsulated/adsorbed into”, “haemoglobin molecule,” for “ferritin cage,”, “administration. […]” for “administration.”

cancer cells = assay: Transfer of iron binding proteins from loaded leukocytes to co-cultured cancer cells
Description: However, in case of cancer cells the ratio of both cell types is crucial. The more macrophages the better and faster the transport is. The most efficient transfer to the cancer cells was observed when ratio of macrophages to cancer cells was 1:1 or more.
This transfer of compounds conjugated with anticancer drugs made the effect inducing apoptosis in cancer cells (FIG. 6, 13).
However, the ratio of both cell types is important. The more monocytes the better and faster the transport is. The most efficient transfer to the cancer cells was observed when ratio of monocytes to cancer cells was 1:1 or more.
However, the ratio of both cell types is crucial. The more granulocytes the better and faster the transport is. The most efficient transfer to the cancer cells was observed when ratio of granulocytes to cancer cells was 1:1 or more.
However, the ratio of both cell types is crucial. The more lymphocytes the better and faster the transport is. The most efficient transfer to the cancer cells was observed when ratio of lymphocytes to cancer cells was 1:1 or more.

EMT6 = assay: Ferritin transfer from RAW264.7 macrophages to EMT6 cells under oxidative stress
Description: FIG. 27: Ferritin transfer was examined in cancer cells (EMT6) co-cultured with ferritin-loaded macrophages (RAW264.7) for 2 hrs. Three experimental conditions were used: “ctrl” (normal co-culture, no stress); “EMT6 OS” when EMT6 cells were subjected to the oxidative stress before co-culture and then co-cultured with macrophages at normoxic conditions and “co-culture OS” when both cell types were subjected to the oxidative stress before the co-culture. […] It can be related with higher load of ferritin due to oxidative stress and therefore more efficient transfer, or oxidative stress triggers macrophages to more efficiently deliver ferritins to cancer cells in order to reduce oxidative stress in neighboring cells.

B1: ferritins: recombinant mouse ferritin protein of SEQ ID NO: 4; mammalian ferritin H and/or L homopolymers (protein)
chain: MTTASPSQVRQNYHQDAEAAINRQINLELYASYVYLSMSCYFDRDDVALKNFAKYFLHQSHEEREHAEKLMKLQNQRGGRIFLQDIKKPDRDDWESGLNAMECALHLEKSVNQSLLELHKLATDKNDPHLCDFIETYYLSEQVKSIKELGDHVTNLRKMGAPEAGMAEYLFDKHTLGHGD
release of absorbed ferritin to the culture medium (CD45^+ leukocyte cell; after ferritin loading (FIG. 9)): do not release it to the culture medium
uptake of iron binding protein by cells (CD45^+ leukocyte cell; incubation 1-4 hours in protein solution (ferritin 0.8 mg/ml; haemoglobin, transferrin 0.1 mg/ml), standard culture conditions): very easily uptake
specificity of transfer from macrophages: cancer cells versus non-cancer cells (cancer cells; FIG. 11): much more specific to cancer cells than to non-cancer cells
transport to cancer cells from granulocytes (cancer cells; loaded granulocytes (FIG. 15)): very easily transport
transport to cancer cells from lymphocytes (cancer cells; loaded lymphocytes (FIG. 16)): very easily transport
transport to cancer cells from macrophages (cancer cells; loaded macrophages, mouse mammary, colon, canine mammary, human breast, pancreatic, bladder cancer cells): very easily transport
transport to cancer cells from monocytes (cancer cells; loaded monocytes (FIG. 14)): very easily transport
ferritin received by cancer cells from macrophages versus control (EMT6; EMT6 OS: EMT6 cells subjected to oxidative stress before 2 hrs co-culture): more ferritins than control cells
ferritin uptake by cancer cells from macrophages (EMT6; co-culture OS: both cell types subjected to oxidative stress before 2 hrs co-culture): even more efficient
